Measured values: publication PMC9482650, “Quantitative fragmentomics allow affinity mapping of interactomes” (Nature Communications, 2022)

Assays:
Assay in all cases: holdup assay
Design in all cases: key: below the threshold = too weak to quantify, mostly under pKd 3.1 to 4
Details in all cases: plain residues with an end cap or a label only (N-terminal biotin on a linker: ttds)
[1] = biological target: AHNAK2, Q8IVF2
[2] = biological target: T1, APBA3_2, O96018
T1 sequence (O96018 480-570, limits assumed, looked up): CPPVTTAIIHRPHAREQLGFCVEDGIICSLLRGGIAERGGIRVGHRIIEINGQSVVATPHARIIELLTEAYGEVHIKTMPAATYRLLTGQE

[3] = biological target: T2, CNKSR1, Q969H4
T2 sequence (Q969H4 191-295, limits assumed, looked up): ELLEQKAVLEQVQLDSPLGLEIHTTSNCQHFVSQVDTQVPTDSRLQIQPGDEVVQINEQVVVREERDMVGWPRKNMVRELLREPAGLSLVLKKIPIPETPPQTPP

[4] = biological target: T3, DVL1, O14640
T3 sequence (O14640 246-333, limits assumed, looked up): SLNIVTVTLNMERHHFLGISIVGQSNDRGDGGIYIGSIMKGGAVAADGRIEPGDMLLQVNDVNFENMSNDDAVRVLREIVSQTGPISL

[5] = biological target: T4, GIPC1, O14908
T4 sequence (O14908 128-223, limits assumed, looked up): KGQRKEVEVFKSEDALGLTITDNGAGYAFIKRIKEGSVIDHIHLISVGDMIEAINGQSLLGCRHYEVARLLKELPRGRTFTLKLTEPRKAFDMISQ

[6] = biological target: MAGI1_6, Q96QZ7
Chain of MAGI1_6, Q96QZ7 (Q96QZ7 1146-1238): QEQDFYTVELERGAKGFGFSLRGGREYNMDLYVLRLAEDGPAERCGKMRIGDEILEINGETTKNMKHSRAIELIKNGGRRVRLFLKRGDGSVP

[7] = biological target: MAGIX, Q9H6Y5
Chain of MAGIX, Q9H6Y5 (Q9H6Y5 118-211): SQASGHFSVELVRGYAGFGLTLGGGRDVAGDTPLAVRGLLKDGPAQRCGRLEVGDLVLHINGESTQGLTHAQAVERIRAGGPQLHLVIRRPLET

[8] = biological target: T5, MLLT4, P55196
T5 sequence (P55196 1002-1103, limits assumed, looked up): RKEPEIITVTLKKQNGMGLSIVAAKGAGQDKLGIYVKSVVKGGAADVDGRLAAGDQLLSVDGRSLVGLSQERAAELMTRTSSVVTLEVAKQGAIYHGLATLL

[9] = biological target: T6, MPDZ_7, O75970
T6 sequence (O75970 1146-1253, limits assumed, looked up): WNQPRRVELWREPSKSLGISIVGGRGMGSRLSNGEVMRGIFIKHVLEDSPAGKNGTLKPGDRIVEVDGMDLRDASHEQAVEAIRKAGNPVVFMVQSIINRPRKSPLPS

[10] = biological target: T7, MPP1, Q00013
T7 sequence (Q00013 66-162, limits assumed, looked up): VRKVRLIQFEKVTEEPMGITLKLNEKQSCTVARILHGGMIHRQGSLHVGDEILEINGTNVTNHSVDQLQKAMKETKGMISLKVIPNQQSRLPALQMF

[11] = biological target: T8, NHERF1_1, O14745
T8 sequence (O14745 9-104, limits assumed, looked up): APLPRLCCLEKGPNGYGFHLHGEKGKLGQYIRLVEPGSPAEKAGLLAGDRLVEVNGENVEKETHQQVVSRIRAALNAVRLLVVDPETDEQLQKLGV

[12] = biological target: T9, PDZD2_1, O15018
T9 sequence (O15018 80-192, limits assumed, looked up): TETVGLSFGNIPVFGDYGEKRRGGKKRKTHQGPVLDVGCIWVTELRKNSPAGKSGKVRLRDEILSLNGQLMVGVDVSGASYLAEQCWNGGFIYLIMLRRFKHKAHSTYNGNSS

[13] = biological target: T10, PDZD2_5, O15018
T10 sequence (O15018 2617-2716, limits assumed, looked up): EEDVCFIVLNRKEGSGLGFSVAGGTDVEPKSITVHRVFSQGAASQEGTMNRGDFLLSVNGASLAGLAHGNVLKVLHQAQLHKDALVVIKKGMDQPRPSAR

[14] = biological target: T11, RGS12, O14924
T11 sequence (O14924 17-108, limits assumed, looked up): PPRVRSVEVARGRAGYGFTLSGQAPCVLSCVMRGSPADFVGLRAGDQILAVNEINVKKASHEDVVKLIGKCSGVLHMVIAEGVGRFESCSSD

[15] = biological target: RGS3, P49796-9
Chain of RGS3, P49796-9 (P49796 other isoform, or with tags, fused parts or gaps): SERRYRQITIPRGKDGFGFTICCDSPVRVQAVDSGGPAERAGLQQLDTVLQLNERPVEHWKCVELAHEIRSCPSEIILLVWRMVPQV

[16] = biological target: RIMS1, Q86UR5
Chain of RIMS1, Q86UR5 (Q86UR5 584-692): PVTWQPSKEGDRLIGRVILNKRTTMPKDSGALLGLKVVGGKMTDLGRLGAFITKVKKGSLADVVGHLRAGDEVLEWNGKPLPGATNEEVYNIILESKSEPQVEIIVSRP

[17] = biological target: SDCBP_1, O00560
Chain of SDCBP_1, O00560 (O00560 111-198): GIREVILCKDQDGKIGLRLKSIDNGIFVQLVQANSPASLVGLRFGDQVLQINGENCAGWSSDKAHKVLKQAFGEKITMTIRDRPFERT

[18] = biological target: T12, SHANK2, Q9UPX8
T12 sequence (Q9UPX8 621-730, limits assumed, looked up): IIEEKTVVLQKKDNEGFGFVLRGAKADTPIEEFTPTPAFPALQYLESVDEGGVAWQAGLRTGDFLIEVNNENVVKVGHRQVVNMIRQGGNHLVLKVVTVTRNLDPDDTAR

[19] = biological target: T13, SNTB2, Q13425
T13 sequence (Q13425 110-208, limits assumed, looked up): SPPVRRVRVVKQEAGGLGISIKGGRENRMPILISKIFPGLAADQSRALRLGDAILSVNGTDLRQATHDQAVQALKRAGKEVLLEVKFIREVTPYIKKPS

[20] = biological target: T14, TJP3_2, O95049
T14 sequence (O95049 190-282, limits assumed, looked up): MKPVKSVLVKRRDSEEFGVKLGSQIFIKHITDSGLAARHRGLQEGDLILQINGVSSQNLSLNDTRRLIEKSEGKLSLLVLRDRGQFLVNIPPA

[21] = biological target: T15, USH1C_2, Q9Y6N9
T15 sequence (Q9Y6N9 206-303, limits assumed, looked up): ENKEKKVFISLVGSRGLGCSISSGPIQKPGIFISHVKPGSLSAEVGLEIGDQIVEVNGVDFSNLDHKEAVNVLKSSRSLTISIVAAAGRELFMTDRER

Chain of AHNAK2, Q8IVF2 (Q8IVF2 108-193): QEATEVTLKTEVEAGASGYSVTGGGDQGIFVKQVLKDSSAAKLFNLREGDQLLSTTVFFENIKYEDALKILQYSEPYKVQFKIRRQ

pKd [1]: below the threshold
pKd [2]: below the threshold
pKd [3]: below the threshold
pKd [4]: below the threshold
pKd [5]: 4.1
pKd [6]: 4.22
pKd [7]: below the threshold
pKd [8]: below the threshold
pKd [9]: 5.01
pKd [10]: below the threshold
pKd [11]: 5.36
pKd [12]: 4.19
pKd [13]: below the threshold
pKd [14]: below the threshold
pKd [15]: below the threshold
pKd [16]: below the threshold
pKd [17]: below the threshold
pKd [18]: 4.85
pKd [19]: 4.49
pKd [20]: below the threshold
pKd [21]: below the threshold
Binder: STLTIFETAL [ABCC4, O15439]
